Substitutions are numbered along the chain they refer to. “Also recorded” adds a separate entry of the source.
How the values were obtained:
Trans-sialidase assay = format: biochemical
Protocol: The trans-sialidase assay was performed as described (Scudder, P. et al., J. Biol. Chem., 268:9886-9891 (1993)) with slight modifications. Various amounts of intact enzyme or enzyme fragments were added to 50 mM PBS, Ph 7.2, containing 15% fetal calf serum and […] of [^14C]N-acetyllactosamine (4×10^5 dpm), 50 μg BSA and 0.02% NaN3 in a volume of 60 μl. After incubation for a predetermined amount of time at room temperature, the reaction mixture was diluted to 1.0 ml with distilled water and applied to a column containing 1.0 ml Q-Sepharose equilibrated with water. Sialylated product was eluted with 1 M NaCl and quantified by scintillation counting.
TS enzymatic activity was measured by the sialylation of the acceptor ^14C-labeled N-acetyllactosamine on anion exchange resins (Scudder, P. et al., J. Biol. Chem. 268:9886-9891 (1993)). Recombinant TSA-1, was expressed on insect sf9 cells and purified from serum-free medium by ion exchange chromatography (monoQ) and preparative SDS-PAGE (Wrightsman, R. A. et al., J. Immunol., 153:3148-3154 (1994).

IL-6 [1] = assay: IL-6 secretion by T-24 carcinoma cells (ELISA); format: cell-based, human; conditions: 24 hours
Protocol: (§1) Primary cultures of human intestinal microvascular endothelial cells (HIMEC) isolated from normal jejunal mucosa/submucosal tissue were prepared as described (Strong et al., Gastroenterology 114:1244-1256 (1998)). The HIMEC were cultured in fibronectin-coated plasticware in MCDB medium (Sigma) supplemented with 20% FBS, 90 μg/ml heparin and 50 μg/ml endothelial cell growth factor (Sigma). T-24 cells (ATCC Accession No. HTB-4) were cultured in M199 medium supplemented with 10% FBS. PBMC were purified by Ficoll-Paque gradient as described (Current Protocols in Immunology, pp 7.1.1-7.1.2). Vero cells (ATCC Accession No. CCL-81) were grown in RPMI medium with 5% Nu serum and infected with the Silvio X-10/4 of T. cruzi as described previously (Chuenkova et al., J. Exp. Med. 181:1693-1703 (1995)).
(§2) Endothelial cells and T-24 cells were plated on 24-well plates at a density of 1×10^3 cells/well, while peripheral blood mononuclear cells (PBMC) were plated in the similar wells at 1×10^6/well. Triplicat cultures of cells were incubated test agents for a predetermined amount of time. […] Cytokines and chemokines released in the culture supernatants were measured by ELISA assay following the instructions of the manufacturer (Endogen). The cytokines tested were IL-1β, IL-4, IL-8, […], IL-12, IFN-γ, TNF-α, and the chemokines RANTES and MCP-1. Negative controls were cells incubated in medium containing polymixin B at 10 μg/ml, and positive controls were cells incubated with bacterial LPS at the low ng/ml range (for PBMC or HIMEC) or in the μg/ml range for carcinoma T-24 cells. In some experiments, IL-1β or TNFα were used as positive control for cytokine release.

IL-6 [2] = assay: IL-6 secretion by PBMC (ELISA); format: cell-based, human; conditions: 24 hours
Protocol: as §1, §2
TR peptides (Table 2) were synthesized at the Tufts Synthesis Facility (Boston, Mass.). Each peptide was purified by HPLC, and the number of amino acids and molecular weight of each peptide verified by mass spectrometry. Peptides were dissolved in growth medium (10% FCS in RPMI) and added at various concentrations to 1×10^6 PBMC/well in 24-well plates. After 24 hours, IL-6 was assayed by ELISA in the conditioned supernatants.

human Schwann cells = assay: Serum withdrawal-induced apoptosis of Schwann cells (DAPI); format: cell-based
neuroblastoma N18 cells = assay: Neurite outgrowth assay in N18 cells; format: cell-based; conditions: soluble or immobilized on plastic (500 μg/ml coating), 17 hours
Protocol: 96-well microtiter plates were coated overnight at 4° C. with the TS or peptides or fragments thereof, or with control proteins laminin (Ln) or bovine serum albumin (BSA) at 500 μg/ml. After removing the compounds, the plates were further incubated with 1% BSA for 1 hour at room temperature and immediately used as substratum for PC12 or N18 (Prasad, K., Biol. Rev. Camb. Philos. Soc., 66:431-451 (1991)) cells in serum-free RPMI/0.2% BSA. Neurite outgrowth was measured using a phase-contrast microscope 17 hours later.

Akt kinase [3] = assay: Immunodetection of activated Akt in PC12 cells; format: cell-based; conditions: Western blot, phospho-Akt (Ser 473) antibody; 100 ng/ml
Protocol: PC12 cells were deprived of serum for 24-48 hours, stimulated with TS, TS-F or LTR for 2, 5 or 10 minutes and immediately lysed with 2% SDS. In studies using the PI-3 kinase inhibitor, LY294002 (LY), cells were pre-treated with the inhibitor (1 μM) for 30 min prior to the addition of TS-F or TS. The proteins in the cell lysate were separated in SDS-10% polyacrylamide gels, transferred to nitrocellulose membrane (Bio-Rad) and the phosphorylated form of protein kinase Akt was detected with phospho-Akt (Ser 473) antibody (New England BioLabs, Beverly, Mass.), followed by alkaline phosphatase-conjugated secondary antibody (Promega, Madison, Wis.). Bands corresponding to phospho-Akt (60 kDa) were quantified using a scanning densitometer (Bio-Rad).

PC12 cells = assay: Protection of PC12 cells from apoptosis induced by trophic factor withdrawal (DAPI, TUNEL); format: cell-based; conditions: serum-free RPMI-1640/0.2% BSA, 17 hours, DAPI or TUNEL
Excerpt: PC12 cells were obtained from ATCC (Manassas, Va. (Accession No. CRL-1721)) and cultured on collagen-coated dishes in RPMI 1640 supplemented with 10% horse serum and 5% fetal bovine serum (Greene, L., and Tishler, A., Proc. Natl. Acad. Sci. USA, 73:2424-2428 (1976)). For differentiation and survival experiments, cells were washed three times in serum-free RPMI/0.2% BSA, plated in the same medium in collagen-coated plastic dishes at 2×10^5/ml, without and with growth factors, TS, recombinant proteins, synthetic peptides, for the time and concentrations indicated in the Figures.
Cell staining with 4,6-diamino-2-phenylindole (DAPI). Cells were fixed with 4% formaldehyde in PBS for 5 minutes, washed with PBS, stained with 10 μg/ml DAPI (Sigma) for 2 minutes, washed with PBS, and visualized under UV light using a fluorescent microscope. About 300-400 cells were examined under the microscope to determine the percentage of apoptotic cells.
Cell DNA nick end labeling (TUNEL) (Gavrieli, Y. et al., J. Cell. Biol., 119:493-501 (1992)) assay was performed using a kit purchased from Boehringer Mannheim as described by the manufacturer.
Protection against apoptosis of PC12 cells in serum-free medium containing a test agent (agent N) (e.g., protection induced by TS, TS fragments, NGF or other growth factors), was calculated by the formula: 100%−[(apoptosis(%) of cells kept in RPMI containing test agent N÷apoptosis (%) of cells kept in RPMI)×100%]. Testing the effect of Wortmannin (Sigma) and LY294002 (Sigma) in inhibiting the neuroprotection of TS was performed following the protocol described by others (Yao, R., and Cooper, G., Science, 267:2003-2006 (1995); D'Mello, et al., J. Neurosci., 17:1548-1560 (1997)). In brief, PC12 cells were switched from growth medium to RPMI without and with TS or various other growth factors. After 24 hours, Wortmannin and LY294002 were added to the cultures. After another 24 hours, cells were examined for apoptosis by the DAPI assay, as above.

Akt kinase [4] = assay: Immunodetection and kinase assay of activated Akt in Schwann cells
Protocol: Schwann cells, grown in 10% FCS to 70% confluency in 6-well plates, were switched to DMEM containing 0.1% FCS for 48 hours to reduce basal Akt phosphorylation. Then the cells were placed in serum-free DMEM medium for 2 hours and challenged with TS, CD or other test factors for predetermined periods of time. When the PI-3 kinase inhibitor LY294002 (Sigma) was used, the inhibitor was added to the serum-starved cells 30 minutes before challenge with TS or CD. Cell samples were lysed with lysis buffer (20 mM Tris, pH 7.5, 150 mM NaCl, 1 mM EDTA, 1% Triton X-100 (t-Octylphenoxypolyethoxyethanol), 2.5 mM sodium pyrophosphate, 1 mM glycerophosphate, 1 mM Na3VO4, 1 μg/ml leupeptin and 1 mM Phenymethylsulfonyl fluoride (PMSF)). Samples (40 μg) were run on 10% SDS-Page, blotted to nitrocellulose paper and analyzed by Western (immuno) blot with monoclonal antibody specific for P-Ser473 of Akt (New England Biolabs). Reaction was visualized by chemiluminescence using the ECL kit (New England Nuclear).
Enzymatic activity of Akt kinase was assessed using the synthetic substrate GSK-3α-fusion protein (Cell Signaling Technology, Beverly, Mass.), according to the protocol provided by Cell Signaling Technology. In short, lysates of Schwann cells subjected to various treatments were immunoprecipitated with Akt antibody coupled to agarose beads, and the immunoprecipitates incubated with GSK-3α-fusion protein as the substrate for Akt phosphorylation, in the presence of 200 μM ATP. Phosphorylation of GSK-3 fusion protein was detected by Western blot using phospho-GSK-3αβ (Ser21/9)-specific antibody (Cell Signaling Technology). The reaction product was identified by chemiluminescence using the ECL kit (New England Nuclear).

B1: TS-H32 (protein, listed as Trypanosoma cruzi)
chain: KKKQVFSKIFYSEDDGKTWKFGEGRSAFGCSEAVALEWEGKLIINTRVDYRRRLVYESSDMGNTWLEAVGTLSRVWGPSPKSNQPGSQSSFTAVTIEGMRVMLFTHPLNFKGRWLRDRLNLWLTDNQRIYNVGQVSIGDENSAHSSVLYKDDKLYCLHEINSNEVYSLVFARLVGELRIIKSVLQSWKNWDSHLSSICTP
- trans-sialidase (enzymatic) activity (Trans-sialidase assay): enzymatically-inactive
- IL-6 secretion by T-24 cells (IL-6 [1]): stimulating IL-6 secretion
- IL-6 secretion by PBMC (IL-6 [2]): stimulating IL-6 secretion

B2: TS-154: recombinant catalytically active trans-sialidase construct with 5 tandem repeat units (protein, listed as Trypanosoma cruzi)
chain: B1 chain with D15E, A27D, A33P, T64S, L66V, H144Y
- trans-sialidase (enzymatic) activity (Trans-sialidase assay): enzymatically-active
- IL-6 secretion by T-24 cells (IL-6 [1]): as powerful as enzymatically-inactive TS-H32 in stimulating IL-6 secretion
- IL-6 secretion by PBMC (IL-6 [2]): as powerful as enzymatically-inactive TS-H32 in stimulating IL-6 secretion

B3: TS-F: recombinant full catalytic domain of TS, amino acid residues 33-666 (protein, listed as Trypanosoma cruzi)
chain: ETQIAIKNSRVSSVSRVVDPTVIVKGNKLYVLVGSYYSSRSYWSSHGDARDWDILLAVGEVTKSTAGGKITASIKWGSPVSLKKFFPAEMEGMHTNQFLGGAGVAIVASNGNLVYPVQVTNKRKQVFSKIFYSEDDGKTWKFGKGRSDFGCSEPVALEWEGKLIINTRVDWKRRLVYESSDMEKPWVEAVGTVSRVWGPSPKSNQPGSQTSFTAVTIEGMRVMLFTHPLNFKGRCVRDRLNLWLTDNQRIYNVGQVSIGDENSAYSSVLYKDDKLYCLHEINTDEVYSLVFARLVGELRIIKSVLRSWKNWTATCPAFAPLLIQPLRRQRVVVVPLSPRLVLLAFCRQRLPKRMGGSYRCVNASTANAERVRNGLKFAGVGGGALWPVSQQGQNQRYRFANHAFTLVASVTIHEAPRAASPLLGASLDSSGGKKLLGLSYDEKHQWQPIYGSTPVTPTGSWETGKRYHLVLTMANKIGSVYIDGELLEGSGQTVVPDGRTPDISHFYVGGYKRSDMPTISHVTVNNVLLYNRRQLNTEEIRTLFLSQDLIGTEAHMDSSSDSSAHSTPSTPADSSAHSTPSTPVDSSAHSTPSTPADSSAHGTPSTPVDSSAHGTPSTPADSSAHGTPSTPVDS
- survival of Schwann cells transfected with dominant negative PTEN mutant (pG129R) (human Schwann cells; CD 500 ng/ml): did not detectably enhance Akt phosphorylation and survival
- survival of control Schwann cells transfected with GFP vector (human Schwann cells; CD 500 ng/ml, serum-free, 48 hours): did increase survival of the cells
- survival of Schwann cells over expressing kinase-inactive Akt (AktKI) (human Schwann cells; CD 500 ng/ml, serum-free, 48 hours, listed as CD): did not increase survival of the cells; also recorded: did not promote survival
- fragmented nuclei in Schwann cells transfected with empty vector (neo) (human Schwann cells; CD 500 ng/ml, serum-starved): decreased the number of fragmented nuclei by about ten-fold
- rescue from apoptosis of Schwann cells over expressing PTEN (human Schwann cells; CD 500 ng/ml, listed as CD): did not rescue cells from apoptotic death; also recorded: did not rescue Schwann cells that over expressed PTEN from apoptosis
- inhibition of serum withdrawal-induced apoptosis of Schwann cells (human Schwann cells; serum-free DMEM, 24-72 hours, listed as CD): protected Schwann cells against apoptosis; also recorded: nearly as effective in protecting Schwann cells from apoptosis as 2% serum; also recorded: protected human Schwann cells from apoptosis; also recorded: nearly as effective as 2% serum at inhibiting apoptosis; also recorded: dose-dependent inhibition of serum withdrawal-induced apoptosis
- neurite outgrowth in N18 cells (neuroblastoma N18 cells): induced neurite outgrowth to about the same extent as the intact enzyme
- trans-sialidase (enzymatic) activity (Trans-sialidase assay): enzymatically active
- IL-6 secretion by T-24 cells (IL-6 [1]): did not promote IL-6 release from T-24 cells
- phosphorylation (activation) of Akt kinase in PC12 cells (Akt kinase [3]): effective in activating Akt
- protection of PC12 cells from apoptosis induced by trophic factor withdrawal (PC12 cells): PC12 cell survival being induced by TS-F
- Akt phosphorylation in Schwann cells transfected with dominant negative PTEN mutant (Akt kinase [4]; CD 500 ng/ml): did not detectably enhance Akt phosphorylation
- Akt phosphorylation in Schwann cells transfected with empty vector (neo) (Akt kinase [4]; CD 500 ng/ml): boosted levels of phospho-Akt
- time within which CD activated Schwann cell Akt kinase (Akt kinase [4]; CD 500 ng/ml): 1 to 5 min
- transience of Akt activation in Schwann cells (Akt kinase [4]; CD 500 ng/ml): phospho-Akt not detected after 15 min
- Akt kinase activity in control GFP-transfected Schwann cells (Akt kinase [4]; CD 500 ng/ml, 2 minutes, GSK-3α substrate): stimulation of Akt activity
- Akt kinase activity in Schwann cells over expressing AktKI (Akt kinase [4]; CD 500 ng/ml, 2 minutes, GSK-3α substrate, listed as CD): inability of CD to enhance endogenous Akt enzymatic activity; also recorded: did not activate Akt kinase
- Akt phosphorylation in Schwann cells over expressing PTEN (Akt kinase [4]; CD 500 ng/ml, listed as CD): did not result in the generation of phospho-Akt; also recorded: did not induce phosphorylation of Akt kinase
- phosphorylation (activation) of Akt kinase in Schwann cells (Akt kinase [4]; Western blot P-Akt (Ser473), listed as CD): induced transient phosphorylation of Akt kinase

Reference: US20090117593A1, “T. Cruzi-derived neurotrophic agents and methods of use therefor” (Tufts University, priority 2006, published 2009)
